For this series, the target named is Dlx3 (recombinant) (UniProt O60479 1-287). Description: EMSA; anti-Dlx3 supershift; cold competitor 100x; EMSA as described previously (binding buffer not given); 5% native polyacrylamide gel in 1x TBE; 100-fold molar excess of unlabeled competitor. The following applies: protein: recombinant; label: 32P; blunt. On the technique in general: In EMSA bound probe runs differently from free probe, usually more slowly.
Dlx3 (recombinant), sequence (O60479 whole entry): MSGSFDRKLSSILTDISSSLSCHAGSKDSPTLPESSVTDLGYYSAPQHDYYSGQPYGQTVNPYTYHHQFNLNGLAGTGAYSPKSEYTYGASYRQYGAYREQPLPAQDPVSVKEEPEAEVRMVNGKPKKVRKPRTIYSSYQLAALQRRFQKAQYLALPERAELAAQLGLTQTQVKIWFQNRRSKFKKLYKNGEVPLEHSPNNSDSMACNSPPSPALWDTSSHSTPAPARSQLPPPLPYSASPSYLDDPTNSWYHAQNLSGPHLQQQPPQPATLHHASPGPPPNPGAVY

B1: Dlx3II Oligo (dsDNA)
DNA 1: GTTGAGAAAATTATCAAACTGA
DNA 2: TCAGTTTGATAATTTTCTCAAC
For B1, the binding result is listed as “binds”.

B2: Dlx3I Oligo (dsDNA)
DNA 1: GAGCTATTTAATTAAGTGAAA
DNA 2: TTTCACTTAATTAAATAGCTC
In the case of B2, the binding result is “binds”.
